Patent publication US20250296994A1 (SYSMEX, published 2025)

Tests used:
[1] = target: T1, recombinant Crtac1B fragment #7 (negative control) (human, UniProt Q9NQ79 28-606); assay: antigen immobilized ELISA, hybridoma culture supernatant, color development at 655 nm same as plate without antigen
T1 construct: also called fCrtac1B (1-606)
T1 sequence: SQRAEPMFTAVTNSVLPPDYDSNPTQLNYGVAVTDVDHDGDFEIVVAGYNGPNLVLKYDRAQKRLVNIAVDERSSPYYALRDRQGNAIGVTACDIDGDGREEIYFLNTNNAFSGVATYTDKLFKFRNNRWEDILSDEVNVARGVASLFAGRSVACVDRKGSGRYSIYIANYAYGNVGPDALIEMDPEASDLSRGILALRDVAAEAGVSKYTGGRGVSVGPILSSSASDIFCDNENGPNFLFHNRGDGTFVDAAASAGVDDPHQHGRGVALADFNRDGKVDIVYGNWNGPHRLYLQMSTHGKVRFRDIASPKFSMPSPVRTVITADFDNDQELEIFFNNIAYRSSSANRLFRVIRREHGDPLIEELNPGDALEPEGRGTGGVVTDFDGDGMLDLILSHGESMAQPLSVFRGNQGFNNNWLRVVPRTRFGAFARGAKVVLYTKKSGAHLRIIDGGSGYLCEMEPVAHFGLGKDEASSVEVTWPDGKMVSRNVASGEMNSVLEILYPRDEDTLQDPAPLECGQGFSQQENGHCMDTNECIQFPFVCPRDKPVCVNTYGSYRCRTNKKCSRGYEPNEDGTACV
Procedure: (§1) A positive antigen (50 μL) and a negative control (50 μL) were added to each well of a 96 well plate, respectively. Then, the plate was incubated at 4° C. overnight, and the positive antigen and the negative control were immobilized in the well to obtain an antigen immobilized plate. Each well was washed twice with a washing solution (250 μL, 0.05% Tween (registered trademark) 20/20 mM potassium phosphate buffer (pH 7.4), 150 mM NaCl). To each well was added a blocking buffer (250 μL, 5% skim milk/20 mM potassium phosphate buffer (pH 7.4), 150 mM NaCl), and blocked at room temperature for 90 minutes. Culture supernatant (50 μL) of each hybridoma selected by primary screening was added to each well, and the cells were incubated at 37° C. for 1 hour. Each well was washed three times with a washing solution (250 μL). The HRP-labeled anti-mouse IgG antibody (MBL, product number 330) was diluted 1:1,000 with dilution buffer II (1% skim milk/20 mM potassium phosphate buffer (pH 7.4), 150 mM NaCl). A solution (50 μL) of this labeled antibody was added to each well, and the well was incubated at 37° C. for 1 hour. Each well was washed five times with a washing solution (250 μL). Chemical chromogenic substrate solutions (Bio-Rad, TMB Peroxidase EIA Substrate Kit) were added to respective wells at 50 μL, and the plate was allowed to stand at room temperature under shading for 30 minutes. The plate was set in a microplate reader (Thermo Fisher Scientific, Varioskan (registered trademark) Flash), and the color development intensity at 655 nm was measured for each well.
(§2) Reactivity of the monoclonal antibody contained in the culture supernatant of the hybridomas of clones 1B4 and 15C2 to the antigen was confirmed by ELISA using the 7 recombinant Crtac1B fragments described above. A specific operation was the same as that of the antigen immobilized ELISA method of Example 1. For comparison, ELISA was performed in the same manner using a 96 well plate in which no antigen was immobilized.
(§3) In addition, as to these monoclonal antibodies, the color development intensity when the recombinant Crtac1B fragments of #6 and #7 were used was substantially the same as that when a plate without immobilizing the antigen was used.

[2] = target: T2, recombinant Crtac1B fragment #6 (human, UniProt Q9NQ79 28-606); assay: as above
T2 construct: also called fCrtac1B (1-607)
T2 sequence: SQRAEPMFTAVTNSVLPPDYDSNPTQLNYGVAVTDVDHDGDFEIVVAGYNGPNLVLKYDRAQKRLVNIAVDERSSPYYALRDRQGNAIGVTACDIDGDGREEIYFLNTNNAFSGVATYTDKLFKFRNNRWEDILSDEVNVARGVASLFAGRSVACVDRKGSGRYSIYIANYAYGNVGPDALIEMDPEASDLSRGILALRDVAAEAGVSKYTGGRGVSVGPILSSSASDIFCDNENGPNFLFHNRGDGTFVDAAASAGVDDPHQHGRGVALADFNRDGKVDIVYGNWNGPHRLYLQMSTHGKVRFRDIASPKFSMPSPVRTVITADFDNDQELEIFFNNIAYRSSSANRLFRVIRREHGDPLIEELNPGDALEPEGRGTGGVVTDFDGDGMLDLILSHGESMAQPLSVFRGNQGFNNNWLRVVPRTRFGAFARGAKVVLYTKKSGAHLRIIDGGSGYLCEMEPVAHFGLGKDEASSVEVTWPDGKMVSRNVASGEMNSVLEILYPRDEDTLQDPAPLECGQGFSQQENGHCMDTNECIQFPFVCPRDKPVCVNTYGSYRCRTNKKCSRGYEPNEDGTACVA
Procedure: as §1, §2, §3

binding result [1]: no binding
binding result [2]: no binding
B1: 15C2 antibody (monoclonal antibody derived from the hybridoma of clone 15C2) (antibody, mouse IgG1, kappa, V domains shown)
VH: EVQLQQFGAELVKPGASVKISCKASGYTFTDYNMDWVKQSHGKSLEWIGDINPNYDSSSYNQKFKGKATLTVDKSSSTAYMELRSLTSEDTAVYYCTRSGGTYWGQGTLVTVSA
VL: DIQMNQSPSSLSASLGDTITITCHASQNINVWLSWYQQKPGNIPKLLIYKASNLHTGVPSRFSGSGSGTGFSLTISSLQPEDIATYYCQQAQSYPRTFGGGTKLEIKR
notes: Mouse IgG1; Used as hybridoma culture supernatant (ELISA) or purified from supernatant (IB, IP); also called anti-Crtac1B antibody; antibody of the present embodiment
